Experiments:
NCI-H292 cells = test: Immunoassay of MUC5AC protein in NCI-H292 cells (Example 2); format: cell-based, human; settings: 1 h incubation, protein at 24 h; IL-8 10^-8 M, fMLP 10^-8 M, TNFα 20 ng/ml
[1] = tested on: rat nasal septal epithelium; test: fMLP-induced degranulation and regranulation of goblet cells in rat nasal epithelium; format: in vivo
Experimental: Nasal Tissue Preparation. At various times after inhalation, rats were anesthetized with pentobarbital sodium (65 mg/kg, i.p.). The heart of the animal was exposed, a blunt-ended needle was inserted from the apex of the left ventricle into the ascending aorta, and the systemic circulation was perfused with 1% paraformaldehyde. An incision in the right atrium provided an outlet for the fixative. The eyes, lower jaws, skin, and musculature were removed, and the head was immersed in a large volume of the same fixative for 24 h. […]
Counting of Neutrophils in Nasal Epithelium. Neutrophils were counted in high power fields of the epithelial layer stained with 3,3′-diaminobenzidine at magnification ×400. The number of neutrophils within the nasal sepal epithelium (from the basement membrane to cell apices) was determined by counting the number of nuclear profiles per unit of basal lamina length.
Quantification of Goblet Cell Degranulation and Regranulation. To assess goblet cell degranulation and regranulation, we measured the volume density of Alcian blue/PAS-stained mucosubstances on the mucosal surface epithelium using a semiautomatic imaging system according to a previously published method. […] Images of the nasal epithelium were recorded in high power fields with a phase contrast lens at x400, using an IMAXX Video System (PDI, Redmond, Wash.). […]

human neutrophils = test: Chemotaxis of human neutrophils (microchemotaxis chamber); format: cell-based; settings: 10^-10, 10^-9, 5×10^-9 M
Experimental: Human neutrophils were purified from peripheral blood obtained from healthy donors. Neutrophil isolation was performed by standard techniques of Ficoll-Hypaque gradient separation, dextran sedimentation, and hypotonic lysis of erythrocytes. Cells were routinely >95% viable by trypan blue dye exclusion. To prevent endotoxin contamination, all solutions were passed through a […]. Chemotactic activity was assessed in 48-well microchemotaxis chamber (Neuroprobe, Cabin John, Md.), utilizing the leading front technique. Migration was measured as net movement of neutrophils ([…]) through a nitrocellulose filter (pore size, 3 μm) after 25 min at 37° C. The effect of IL-13 (10^−10, 10^−9, and 5×10^−9 M; recombinant human IL-13, R&D systems, Minneapolis, Minn.) is expressed as the distance traveled, compared to the random migration of neutrophils incubated with RPMI 1640.

pathogen-free rats = test: IL-13-induced goblet cell metaplasia in rat airways; format: in vivo
Experimental: Animals were anesthetized with pentobarbital [Nembutal sodium, 50 mg/kg, intraperitoneally (ip), Abbott Laboratories, North Chicago, Ill.] and allowed to breathe spontaneously. Vehicle (phosphate buffer solution, PBS) or IL-13 was instilled intratracheally via a 20-gauge Angiocath catheter (Beckton Dickinson, Sandy, Utah) through the mouth, while the laryngeal area was visualized using a high-intensity illuminator (FiberLite; Dolan Jenner Industries, Inc., Lawrence, Mass.). The […] tissues were examined 48 hours after instillation of IL-13. Various concentrations of IL-13 (recombinant murine IL-13; 5, 50, 100, and 500 ng/rat, R&D systems, Minneapolis, Minn.) were instilled into the trachea in […]. Sterile PBS (200 μl) was instilled into the trachea as controls. For examination of the relationship between IL-13-induced GC metaplasia and activation of EGFR, animals were pretreated 1 d before instillation of IL-13 and daily thereafter with a selective EGFR tyrosine kinase inhibitor (BIBX 1522; 1-30 mg/kg/day, ip; Boehringer Ingelheim, Ingelheim, Germany). Animals were euthanized 48 hours after instillation of IL-13. In preliminary studies, we noted that IL-13 causes leukocyte recruitment into the airways. We hypothesized that leukocyte recruitment results from IL-13-induced chemoattractant release from epithelium, and that this recruitment is involved in the IL-13-induced EGFR cascade leading to GC metaplasia. Groups of animals were euthanized 4, 8, 16, 24, and 48 hours after instillation of IL-13 (500 ng), and leukocytes were counted in airway tissue. […] Sigma chemical Co., St Louis, Mo.] or with a blocking antibody to interleukin-8 (IL-BAb; rabbit anti-human IL-8 antibody; Biosource, Camarillo, Calif.). […] In another series of studies, we instilled IL-8 Ab (10 μg/rat) intratracheally, along with IL-13; we repeated the instillation of anti-human IL-8 blocking antibody at 12 hour intervals until the animals were euthanized. Animals were euthanized with a lethal dose of pentobarbital (Nembutal sodium, 200 mg/kg, ip, Abbott Laboratories, North Chicago, Ill.), and the systemic circulation was perfused with 1% paraformaldehyde in Diethylpyrocarbonate (DEPC, Sigma chemical Co., St Louis, Mo.)-treated PBS via the left ventricle. For frozen sections, […] tissues were removed, placed in 4% paraformaldehyde overnight, and then placed in 30% sucrose for cryoprotection. The tissues were embedded in optimal cutting temperature (OCT, […]., Inc., Torrance, Calif.) compound. For plastic or paraffin sections, tissues were placed in 4% paraformaldehyde overnight, dehydrated with ethanol, and embedded in JB-4 plus monomer solution A (Polysclences, Inc., Warrington, Pa.) or in paraffin. The embedded tissues were cut as cross sections 4 μm thick and placed on glass slides. In all studies, the carina was examined to obtain consistent sampling. We measured AB/PAS-positive areas and total epithelial area, and we expressed the results as the percentage of AB/PAS area to total epithelial area. The analysis was performed with the public domain NIH IMAGE program (developed at the U.S. National Institutes of Health and available by anonymous FTP from zippy.nimh.gov. or floppy disk from the National Technical Information Service, Springfield, Va., part number PB95-500195GEI). […] For immunohistochemical localization of […], we used mouse anti-human IL-8 antibody (1:20; Biosource, Camarillo, Calif.). The sections were then incubated with biotinylated horse anti-mouse IgG (Vector Laboratories, Burlingame, Calif.) at 1:200 dilution for 1 hour at room temperature. Bound antibody was visualized according to standard protocols for avidin-biotin-peroxidase complex method. The measurement of MUC5AC protein also utilized the same method used for quantitative measurement of GC metaplasia in the epithelium. Animals were euthanized 4, 8, 16, 24, and 48 hours after instillation of IL-13 (500 ng), and leukocytes were counted in airway tissue. […]

[2] = IL-13 5, 50, 100, 500 ng/rat intratracheal, 48 hours, dose-dependently

Row | Molecule | MUC5AC synthesis, stimulus alone without neutrophils (NCI-H292 cells) | area of MUC5AC-positive immunostaining ([1]; 4 h after fMLP aerosol (10^-7 M)) | AB/PAS-stained area of nasal epithelium ([1]; 4 h after fMLP aerosol (10^-7 M) intranasally for 5 min) | neutrophil movement (human neutrophils) | leukocyte recruitment into airway epithelium (pathogen-free rats; IL-13 500 ng) | start of leukocyte recruitment (pathogen-free rats; IL-13 500 ng) | time of maximal leukocyte recruitment (pathogen-free rats; IL-13 500 ng) [h] | AB/PAS staining in rat airway epithelium (pathogen-free rats; [2]) | MUC5AC staining in rat airway epithelium (pathogen-free rats; [2]) | EGFR expression in airway epithelium (pathogen-free rats; instillation of IL-13) | staining of airway epithelium with anti-human IL-8 antibody (IL-8-like chemoattractant) (pathogen-free rats; instillation of IL-13) | TNFα expression in rat airway tissue (pathogen-free rats; instillation of IL-13, mainly in infiltrating neutrophils)
1 | CSCC[C@H](NC=O)C(=O)N[C@@H](CC(C)C)C(=O)N[C@@H](Cc1ccccc1)C(=O)O [fMLP, N-formyl-methionyl-leucyl-phenylalanine] | no effect | markedly decreased | markedly decreased |  |  |  |  |  |  |  |  | 
2 | IL-13: recombinant murine IL-13 in rats; recombinant human IL-13 in chemotaxis (R&D systems) (protein, UniProt P20109 19-131, looked up) Interleukin-13: APGPVPRSVSLPLTLKELIEELSNITQDQTPLCNGSMVWSVDLAAGGFCVALDSLTNISNCNAIYRTQRILHGLCNRKAPTTVSSLPDTKIEVAHFITKLLSYTKQLFRHGPF |  |  |  | decreased neutrophil movement dose-dependently | time-dependent leukocyte recruitment | approximately 8 hours | ≤ 24 | increased | increased | increased | positive staining | induced

— US7531500B2, “Preventing airway mucus production by administration of EGF-R antagonists” (The Regents of the University of California, priority 1998, dated 2009)
